Data on eight molecules can be found in patent US20230348603A1.

This assay concerns the target Mouse VSIG4-His (mouse). Description: ELISA, Fab P.E. 1:5 on coated antigen. A general note: ELISA stands for enzyme-linked immunosorbent assay.

Chain of Mouse VSIG4-His (mouse) (chain, as listed by the source limits assumed): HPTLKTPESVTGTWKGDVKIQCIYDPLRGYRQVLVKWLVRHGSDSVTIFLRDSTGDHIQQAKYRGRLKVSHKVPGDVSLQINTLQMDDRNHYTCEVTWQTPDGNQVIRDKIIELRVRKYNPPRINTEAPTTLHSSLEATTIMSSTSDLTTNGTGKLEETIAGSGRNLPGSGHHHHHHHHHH

B1: 12A12 mouse Fab (periplasmic extract) (Fab, V domains shown)
VH: QVQMKQSGAELAKPGASVKMSCKASGYTFTNYWMHWVKQRPGQGLEWIGYINPSTGYTDYNQNFKDRATLTADKSSSTAYMQLSSLTSEDSAVYYCIRGSDYYGRDYWGQGTTLTVSS
VL: DIQMTQTTSSLSASLGDRVTISCRASQDISNYLNWYQQKPDGTLKLLIYYTSRLHSGVPSRFSGSGSGTDYSLTISNLEQEDIATYFCRQGNTLPWTFGGGTKLEIK
Regarding B1, the ELISA OD450 came out at 0.063 OD450.

B2: 14C05 mouse Fab (periplasmic extract) (Fab, V domains shown)
VH: EVMLVESGPELKKPGETVKISCKASGYTFTNYGMNWVKQAPGKGLKWMGSINTYTGEATYADDFKGRFAFSLETSANTAYLQIDNLKNEDTATYFCARGDYYGRGTWFAYWGQGTLVTVSA
VL: ETTVTQSHKFMSTSVGDRVSITCKASQDVSTAVAWYQQKPGQSPKLLIYSASYRYPGVPDRFTGSGSGTDFTFTISSVQAEDLAVYYCQQDYSSPWTFGGGTKLEIK
The molecule B2 gave an ELISA OD450 of 0.059 OD450.

B3: 12A08 mouse Fab (periplasmic extract) (Fab, V domains shown)
VH: EVMLVESGGGLVKPGGSLKLSCAASGFTFDDFYMYWVRQTPEKRLEWVASISDGGTYTYYPDSVKGRFTISRDNAKNTLYLQLSSLKSEDTAMYYCARGVDKYYYAMDYWGQGTSVTVSS
VL: QILLTQSPAIMSASPGEKVTITCSASSSVSYMHWFQQKPGTSPKLWIYSTSNLASGVPARFSGSGSGTSYSLTISRMEAEDAATYYCQQRSSYPLTFGAGTKLELK
Take B3: the ELISA OD450 worked out at 0.057 OD450.

B4: 13H11 mouse Fab (periplasmic extract) (Fab, V domains shown)
VH: QIQLVQSGPELKKPGETVKISCKASGYTFENFGMNWVKQAPGKGLKWMGWINTYTGEATYADDFKGRFAFSLETSASTAYLQINNLKNEDTATYFCARDGGFRHFDVWGAGTTVTVSS
VL: ETTVTQSPASLSVATGEKVTIRCITSTDIDDDMNWYQQKPGEPPKLLISEGNTLRPGVPSRFSSSGYGTDFVFTIENMLSEDVADYYCLQSDNLPLTFGAGTKLELK
As for B4, the ELISA OD450 came out at 0.057 OD450.

B5: 16E10 mouse Fab (periplasmic extract) (Fab, V domains shown)
VH: QVQLQQSGAELVRPGTSVKISCKASGYTFTNYWLGWVKQRPGHGLEWIGDIYPGGGYTNYNEKFKGKATLTADTSSSTAYMQLSSLTSEDSAVYFCAKFYYYGSSYYFDSWGQGTTLTVSS
VL: DIVLTQSPSSLSVSAGEKVTLSCKSSQSLLNSGNQENYLAWYQQKPGQPPKLLIYGASTRESGVPDRFTGSGSGTDFTLTISSVQAEDLAVYYCQNDHSYPLTFGAGTKLELK
In the case of B5, the ELISA OD450 was found to be 0.058 OD450.

B6: 15C03 mouse Fab (periplasmic extract) (Fab, V domains shown)
VH: EVKLLESGPGLVKPSQSLSLTCTVTGYSITSDYAWNWIRQFPGNKLEWMGYISYSGSTRYNPSLKSRISITRDTSNNQFFLQLNSVTTEDTATYYCARSGYAAMDYWGQGTSVTVSS
VL: ENVLTQSPAIMSASPGEKVTMTCRASSSVSSSYLHWYQQKSGASPKLWIYSTSNLASGVPARFSGSGSGTSYSLTISSVEAEDAATYYCQQYSGYPLTFGSGTKLEIK
In the case of B6, the ELISA OD450 was determined as 0.065 OD450.

B7: 14D12 mouse Fab (periplasmic extract) (Fab, V domains shown)
VH: QIQLVQSGPELKKPGETVKISCKASGYTFTNYGMNWVKQTPGKGLKWMGLINTYTGEPTYADDFKGRFAFSLETSASTAYLQINNLKNEDMATYFCARERIYGYLHYFDYWGQGTTLTVSS
VL: DVVMTQTPASLAVSLGQRATISCKASQSVDYDGDSYMNWYQQKPGQPPKLLIYAASNLESGIPARFSGSGSGTDFTLNIHPVEEEDAATYYCQQSNEDPRTFGGGTKLEIK
As for B7, the ELISA OD450 stood at 0.054 OD450.

B8: 16E03 mouse Fab (periplasmic extract) (Fab, V domains shown)
VH: QVQLQQSGAELARPGASVKMSCKASGYTFTSYTMHWIKQRPGQGLEWIGYINPSSGHTYYNQKFKDKATLTPDKSSSTAYMQLTSLTSEDSAVYYCARRIPTAYAMDYWGQGTSVTVSS
VL: EIQMTQSHKFMSTSVGDRVSITCKASQDVGTAVAWYQQKPGQSPKLLIYWASTRHTGVPDRFTGSGSGTDFTLTISNVQSEDLADYFCQQYSSYPLTFGAGTKLELK
The molecule B8 came in with an ELISA OD450 of 0.057 OD450.
